From publication PMC12824264, “Endoglin as a BMP9 Co-Receptor in Vascular Endothelial Cells: Prodomain Displacement and TGFBRII Recruitment” (Nature communications, 2025)

B1: BMP9 growth factor domain (GFD) dimer (ligand, human, UniProt Q9UK05 320-429, looked up)
chain: SAGAGSHCQKTSLRVNFEDIGWDSWIIAPKEYEAYECKGGCFFPLADDVTPTKHAIVQTLVHLKFPTKVGKACCVPTKLSPISVLYKDDMGVPTLKYHYEGMSVAECGCR
notes: growth factor domain (GFD) of BMP9, the cut product of the proprotein; also called BMP9 GFD; source: bought: R&D Systems (BMP9 GFD); in the prodomain displacement assays released from pro:BMP9 made in HEK EBNA, purified
B2: BMP10 growth factor domain (GFD) dimer (ligand, human, UniProt O95393 317-424, looked up)
chain: NAKGNYCKRTPLYIDFKEIGWDSWIIAPPGYEAYECRGVCNYPLAEHLTPTKHAIIQALVHLKNSQKASKACCVPTKLEPISILYLDKGVVTYKFKYEGMAVSECGCR
notes: growth factor domain (GFD) of BMP10, the cut product of the proprotein; One molecule is used for the bought GFD and for the GFD freed from pro:BMP10; also called BMP10 GFD; source: bought: R&D Systems (BMP10 GFD); in the prodomain displacement assays released from pro:BMP10 made in HEK EBNA (FURIN co-transfected), purified
B3: monomeric soluble endoglin (full-length ENG extracellular domain), sENG(M) (domain or fragment, human, UniProt P17813 26-586, looked up)
chain: ETVHCDLQPVGPERGEVTYTTSQVSKGCVAQAPNAILEVHVLFLEFPTGPSQLELTLQASKQNGTWPREVLLVLSVNSSVFLHLQALGIPLHLAYNSSLVTFQEPPGVNTTELPSFPKTQILEWAAERGPITSAAELNDPQSILLRLGQAQGSLSFCMLEASQDMGRTLEWRPRTPALVRGCHLEGVAGHKEAHILRVLPGHSAGPRTVTVKVELSCAPGDLDAVLILQGPPYVSWLIDANHNMQIWTTGEYSFKIFPEKNIRGFKLPDTPQGLLGEARMLNASIVASFVELPLASIVSLHASSCGGRLQTSPAPIQTTPPKDTCSPELLMSLIQTKCADDAMTLVLKKELVAHLKCTITGLTFWDPSCEAEDRGDKFVLRSAYSSCGMQVSASMISNEAVVNILSSSSPQRKKVHCLNMDSLSFQLGLYLSPHFLQASNTIEPGQQSFVQVRVSPSVSEFLLQLDSCHLDLGPEGGTVELIQGRAAKGNCVSLLSPSPEGDPRFSFLLHFYTVPIPKTGTLSCTVALRPKTGSQDQEVHRTVFMRLNIISPDLSGCTSKG
notes: signal peptide in the construct; Expressed as a mixture of dimer and monomer; also called monomeric sENG; sENG-His; source: HEK EBNA, transfected (pCEP4), purified from conditioned medium (HisTrap excel, HiTrap Q HP, Superdex 200)
B4: dimeric soluble endoglin (full-length ENG extracellular domain), sENG(D) (domain or fragment, human, UniProt P17813 26-586, looked up)
chain: ETVHCDLQPVGPERGEVTYTTSQVSKGCVAQAPNAILEVHVLFLEFPTGPSQLELTLQASKQNGTWPREVLLVLSVNSSVFLHLQALGIPLHLAYNSSLVTFQEPPGVNTTELPSFPKTQILEWAAERGPITSAAELNDPQSILLRLGQAQGSLSFCMLEASQDMGRTLEWRPRTPALVRGCHLEGVAGHKEAHILRVLPGHSAGPRTVTVKVELSCAPGDLDAVLILQGPPYVSWLIDANHNMQIWTTGEYSFKIFPEKNIRGFKLPDTPQGLLGEARMLNASIVASFVELPLASIVSLHASSCGGRLQTSPAPIQTTPPKDTCSPELLMSLIQTKCADDAMTLVLKKELVAHLKCTITGLTFWDPSCEAEDRGDKFVLRSAYSSCGMQVSASMISNEAVVNILSSSSPQRKKVHCLNMDSLSFQLGLYLSPHFLQASNTIEPGQQSFVQVRVSPSVSEFLLQLDSCHLDLGPEGGTVELIQGRAAKGNCVSLLSPSPEGDPRFSFLLHFYTVPIPKTGTLSCTVALRPKTGSQDQEVHRTVFMRLNIISPDLSGCTSKG
notes: signal peptide in the construct; Same construct as m1; It stays a dimer on non-reducing SDS-PAGE; also called dimeric sENG; sENG-His; source: HEK EBNA, transfected (pCEP4), purified from conditioned medium (HisTrap excel, HiTrap Q HP, Superdex 200)

Columns and labels:
Settings in all cases: both partners purified
[1] = target: B4; assay: SEC; S200 10/300 gel filtration; sENG(M) at 6x or sENG(D) at 3x molar excess premixed with pro:BMP9 or pro:BMP10 for 30 min; fractions on non-reducing SDS-PAGE
[2] = target: B3; assay: native gel or EMSA; pro:BMP9 or pro:BMP10 pre-mixed with sENG(D), sENG(M), BMPRII ECD or ActRIIB ECD at stated molar ratios (from 0.3:1) in TBS, 8 ul, 30 min at room temperature; 10% native PAGE at 4 C; bands cut out and re-run on non-reducing SDS-PAGE
[3] = target: B3; assay: SEC; analytical gel filtration; pro:BMP9 or pro:BMP10 pre-mixed with 0.3-fold sENG(M) or sENG(D)
[4] = target: B4; assay: as above
[5] = target: B1; assay: SEC; S200 10/300 gel filtration; sENG(M) at 6x or sENG(D) at 3x molar excess premixed with pro:BMP9 or pro:BMP10 for 30 min; fractions on non-reducing SDS-PAGE
[6] = target: B2; assay: as above
[7] = target: B1; assay: cross-linking; sENG(M) or sENG(D) with BMP9 or BMP10; crosslinker in PBS pH 7.4-8.0, 45 min at room temperature, quenched with 40 mM Tris; non-reducing SDS-PAGE
[8] = target: B2; assay: as above

B1
binding result [1]: binds
binding result [2]: binds

B2
binding result [3]: binds
binding result [4]: binds

B3
stoichiometry N [5]: 1 sENG(M) per GFD dimer
stoichiometry N [6]: 1 sENG(M) per GFD dimer

B4
stoichiometry N [7]: 1 sENG(D) per GFD dimer
stoichiometry N [8]: 1 sENG(D) per GFD dimer
